# Results reported in patent US20070092444A1, “Inhibition of inward sodium currents in cancer” (priority 2003, published 2007).
# Like-named read-outs stand apart in the source and are kept apart here.
# T1: ASIC1 (recombinant: in vitro translated in proteoliposomes, expressed in Xenopus oocytes, reconstituted in planar lipid bilayers) (UniProt P78348)
# T1 sequence: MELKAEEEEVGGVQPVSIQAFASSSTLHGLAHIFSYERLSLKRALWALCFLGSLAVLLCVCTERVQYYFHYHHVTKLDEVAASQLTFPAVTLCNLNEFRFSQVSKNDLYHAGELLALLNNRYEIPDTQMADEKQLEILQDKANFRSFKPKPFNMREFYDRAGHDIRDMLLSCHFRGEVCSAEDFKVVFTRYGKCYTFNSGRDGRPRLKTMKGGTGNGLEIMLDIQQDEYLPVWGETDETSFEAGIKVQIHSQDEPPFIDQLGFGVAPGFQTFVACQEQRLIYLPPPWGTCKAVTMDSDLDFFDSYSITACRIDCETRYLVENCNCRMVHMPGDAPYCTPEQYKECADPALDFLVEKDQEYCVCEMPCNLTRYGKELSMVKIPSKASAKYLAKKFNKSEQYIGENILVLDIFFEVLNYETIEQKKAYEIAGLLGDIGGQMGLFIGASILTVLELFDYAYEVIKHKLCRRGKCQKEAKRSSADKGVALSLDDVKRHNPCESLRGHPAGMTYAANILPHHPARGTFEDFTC
# T2: ASIC1 (Homo sapiens, UniProt P78348)
# T2 sequence (P78348 1-528): T1 sequence
# B1: PKCζ (enzyme, UniProt Q05513 1-592, looked up, species assumed)
# Protein kinase C zeta type: MPSRTGPKMEGSGGRVRLKAHYGGDIFITSVDAATTFEELCEEVRDMCRLHQQHPLTLKWVDSEGDPCTVSSQMELEEAFRLARQCRDEGLIIHVFPSTPEQPGLPCPGEDKSIYRRGARRWRKLYRANGHLFQAKRFNRRAYCGQCSERIWGLARQGYRCINCKLLVHKRCHGLVPLTCRKHMDSVMPSQEPPVDDKNEDADLPSEETDGIAYISSSRKHDSIKDDSEDLKPVIDGMDGIKISQGLGLQDFDLIRVIGRGSYAKVLLVRLKKNDQIYAMKVVKKELVHDDEDIDWVQTEKHVFEQASSNPFLVGLHSCFQTTSRLFLVIEYVNGGDLMFHMQRQRKLPEEHARFYAAEICIALNFLHERGIIYRDLKLDNVLLDADGHIKLTDYGMCKEGLGPGDTTSTFCGTPNYIAPEILRGEEYGFSVDWWALGVLMFEMMAGRSPFDIITDNPDMNTEDYLFQVILEKPIRIPRFLSVKASHVLKGFLNKDPKERLGCRPQTGFSDIKSHAFFRSIDWDLLEKKQALPPFQPQITDDYGLDNFDTQFTSEPVQLTPDDEDAIKRIDQSEFEGFEYINPLLLSTEESV
# B2: PKCε: PKC isoform (protein, UniProt Q02156 1-737, looked up)
# Protein kinase C epsilon type: MVVFNGLLKIKICEAVSLKPTAWSLRHAVGPRPQTFLLDPYIALNVDDSRIGQTATKQKTNSPAWHDEFVTDVCNGRKIELAVFHDAPIGYDDFVANCTIQFEELLQNGSRHFEDWIDLEPEGRVYVIIDLSGSSGEAPKDNEERVFRERMRPRKRQGAVRRRVHQVNGHKFMATYLRQPTYCSHCRDFIWGVIGKQGYQCQVCTCVVHKRCHELIITKCAGLKKQETPDQVGSQRFSVNMPHKFGIHNYKVPTFCDHCGSLLWGLLRQGLQCKVCKMNVHRRCETNVAPNCGVDARGIAKVLADLGVTPDKITNSGQRRKKLIAGAESPQPASGSSPSEEDRSKSAPTSPCDQEIKELENNIRKALSFDNRGEEHRAASSPDGQLMSPGENGEVRQGQAKRLGLDEFNFIKVLGKGSFGKVMLAELKGKDEVYAVKVLKKDVILQDDDVDCTMTEKRILALARKHPYLTQLYCCFQTKDRLFFVMEYVNGGDLMFQIQRSRKFDEPRSRFYAAEVTSALMFLHQHGVIYRDLKLDNILLDAEGHCKLADFGMCKEGILNGVTTTTFCGTPDYIAPEILQELEYGPSVDWWALGVLMYEMMAGQPPFEADNEDDLFESILHDDVLYPVWLSKEAVSILKAFMTKNPHKRLGCVASQNGEDAIKQHPFFKEIDWVLLEQKKIKPPFKPRIKTKRDVNNFDQDFTREEPVLTLVDEAIVKQINQEEFKGFSYFGEDLMP
# Columns and labels:
# [1] = target: T1, ASIC1 (recombinant: in vitro translated in proteoliposomes, expressed in Xenopus oocytes, reconstituted in planar lipid bilayers)
# [2] = target: T1, ASIC1 (recombinant: in vitro translated in proteoliposomes, expressed in Xenopus oocytes, reconstituted in planar lipid bilayers); assay: cell-based or functional assay
# [3] = target: ASIC1+ASIC2+γ-hENaC heteromeric channel (co-expressed in Xenopus oocytes; oocyte membrane vesicles in planar lipid bilayers) (human) (UniProt P78348); assay: cell-based or functional assay
# [4] = tested on: U87-MG cells; assay: Transwell Migration Assay, U87-MG cells; type: cell-based, human; conditions: 3 h, vitronectin
# [5] = target: T2, ASIC1; assay: Acid-activated currents in voltage-clamped Xenopus oocytes expressing ASIC1; type: cell-based; conditions: 1 nM peptide (FIG. 20); pHo 4.0; −60 mV
# Source text: FIGS. 8A-C show acid-activated ASIC currents in Xenopus oocytes. ASIC 2 (FIG. 8A), ASIC1 (FIG. 8B) and the combination of ASIC2 and ASIC1 (FIG. 8C) were examined. […] Each oocyte served as its own control.
# (§1) Membrane potential was held at −60 mV, and the pHo was step decreased to 4.0 for 10 s, and then returned to 7.4 for 30 s before repeating the sequence.
# Xenopus oocytes were used to express ASIC1 and ASIC2 mRNA individually and in combination. Oocyte preparation, cRNA injection, and two-electrode voltage clamp recordings were performed as described (33,67-69).
# as §1
# [6] = tested on: inward Na^+ currents in SK-MG cells; assay: Whole-cell patch clamp, SK-MG glioma cells; type: cell-based, human; conditions: 10 nM peptide
# Protocol: FIGS. 7A-7C show representative whole-cell patch clamp recordings.
# The amiloride-sensitive inward Na^+ currents are measured regardless of whether ASIC2 is absent or present (FIGS. 7A-D). Whole-cell patch clamp recordings were obtained from U87-MG, SK-MG, and D54-MG glioma cells in the basal state. […] This inhibition of the inward current occurred regardless of the absence or presence of ASIC2 mRNA (FIG. 7D) (as detected by RT-PCR as described above).
# (§2) FIG. 19A show representative whole-cell patch clamp recordings of ZR-75-1 and SKMEL-2 cells in the basal state.
# [7] = tested on: constitutive amiloride-sensitive inward Na^+ current in high-grade glioma (GBM) cells; assay: Whole-cell patch clamp, freshly resected and primary cultured high-grade glioma (Grade III/IV, GBM) cells; type: cell-based, human; conditions: 10 nM peptide; freshly resected GBM
# Source text: FIGS. 2A-C show representative whole-cell patch clamp recordings.
# FIGS. 4A and B show summary I-V curves of freshly resected normal astrocytes (FIG. 4A) and GBM cells (FIG. 4B). Inward currents (−60 mV) were −7.5±1.2 pA (normal) and −43.8±14.5 pA (GBM). Outward currents (+40 mV) averaged 42.2±2.4 pA and 47.2±12.5 pA for normal and GBMs, respectively. FIGS. 4C and D show summary amiloride-sensitive (difference) currents of freshly resected normal astrocytes (FIG. 4C) and GBM cells (FIG. 4D).
# A constitutive amiloride-sensitive inward Na^+ conductance has been reported in human high-grade glioma cells. […] These inward Na^+ currents were not present in normal astrocytes or in low-grade astrocytomas (e.g., pilocytic astrocytomas). However, the composition of the channels responsible for the inward Na^+ conductance has not been reported. FIGS. 2A-C show representative whole cell patch-clamp measurements on tissue derived from a freshly resected human glioblastoma multiforme (GBM; WHO grade IV), normal astrocytes obtained from patients undergoing surgery for intractable epilepsy, and primary cultures of different grade glial tumors. […] However, there was no significant inward Na^+ current in normal astrocytes and Grades I and II astrocytoma cells (FIG. 2C).
# Summary current-voltage (I-V) curves are presented for normal astrocytes and GBM cells in FIG. 4A and FIG. 4B, respectively, while difference I-V curves for normal astrocytes and GBM cells are presented in FIG. 4C and FIG. 4D, respectively. The GBM cells are depolarized by an average of 31 mV compared to the normal astrocytes under these recording conditions. The depolarized zero current membrane potential is due to the presence of an enhanced Na^+ conductance as is shown in the difference I-V curves.
# as §2
# [8] = tested on: D54-MG glioma cells; assay: Transwell Migration Assay, D54-MG cells; type: cell-based, human; conditions: 3 h, vitronectin
# Protocol: 5-8 μm polycarbonate Transwell filters were coated on the lower surface with or vitronectin ([…] in PBS). […] of D54MG cells (400,000 cells/ml were added to the upper chamber), in the presence or absence of benzamil, and migration was allowed to proceed for 3 hours. Migration was determined according to standard procedures (120). N-amidino-3,5-diamino-pyrazinecarboxamide was used as a control.
# To begin to investigate the role of the inward Na^+ conductance in the invasive behavior of tumor cells, a Transwell Migration Assay was used to assess cell chemotaxis and invasiveness (FIG. 17). D54-MG cells were plated on the upper side of a filter insert perforated with 5-8 μm holes, and induced to migrate through these pores toward the extracellular matrix protein vitronectin (coated on the underside of the filter). Benzamil, at 10, 20, 50, or 100 μM, was added to both chambers at time 0. After a 3 h migration time, cells were fixed, stained with crystal violet, and counted. BSA-coated filter inserts were used as negative controls. […]
# Approximately 10,000 cells were added to the upper side of a filter insert perforated with 5-8 μm holes, and induced to migrate through these pores toward the extracellular matrix protein vitronectin (coated on the underside of the filter). […] Cells were counted on an inverted microscope, averaging five fields per Transwell chamber. […]
# [9] = tested on: primary GBM cultures; assay: Transwell Migration Assay, primary GBM cultures; type: cell-based, human; conditions: 3 h, vitronectin
# Protocol: Approximately 10,000 cells were added to the upper side of a filter insert perforated with 5-8 μm holes, and induced to migrate through these pores toward the extracellular matrix protein vitronectin (coated on the underside of the filter). PcTX1 or control scrambled PcTX1 peptide was added to each compartment at the same time as the cells. BSA-coated filter inserts were used as negative controls. After 3 h, cells were fixed with 4% paraformaldehyde, and subsequently stained with crystal violet. Cells were counted on an inverted microscope, averaging five fields per Transwell chamber. Four-to-ten chambers were used under each condition.
# [10] = target: T1, ASIC1 (recombinant: in vitro translated in proteoliposomes, expressed in Xenopus oocytes, reconstituted in planar lipid bilayers); assay: cell-based or functional assay; remark: listed apart in the source
# [11] = target: T2, ASIC1; assay: Wild-type ASIC1 in planar lipid bilayers, single channel recording; type: biochemical; conditions: PKC isoforms
# Protocol: An expanded time scale is shown below each trace.
# Wild-type ASIC1 incorporated into planar lipid bilayers at neutral pH or at acidic extracellular pH was also examined.
# as §1
# Control single channel were record for ASIC1 containing channels in bilayers bathed with symmetrical 100 mM NaCl, 10 mM MOPS, pH 6.2. Holding potential was +100 mV referred to the virtually grounded trans chamber. For illustration purposes, data shown were digitally filtered at 100 Hz using pCLAMP software (Axon Instruments) subsequent to acquisition of the analog signal filtered at 300 Hz with an 8-pole Bessel filter before acquisition at 1 ms per point. An expanded time scale is shown below each trace (FIG. 21).
# Representative dwell-time histograms were constructed following the events analyses performed using pCLAMP software (Axon Instruments) on single channel recordings of 10 min in duration filtered at 300 Hz with an 8-pole Bessel filter before acquisition at 1 ms per point using pCLAMP software and hardware. The event detection thresholds were 50% in amplitude of transition between closed and open states, and 3 ms in duration. Closed and open time constants shown were determined by fitting the closed and open time histograms to the probability density function (Sigworth and Sine, 1987), and using the Simplex least square routine of pSTAT. Number of bins per decade in all histograms was 16.
molecule,measurement,setting,value
PKC holoenzyme,ASIC1 activity in planar lipid bilayers,[1],PKC holoenzyme or the combination of PKCβI and PKCβII isoforms inhibited ASIC1.
same,in vitro phosphorylation of ASIC1,[1],"PKC holoenzyme, PKCβI, PKCβII, PKCδ, PKCε, and PKCζ phosphorylated ASIC1 in vitro."
PKCε,ASIC1 activity in planar lipid bilayers,[1],"Neither PKCε, PKCζ, nor their combination had any effect on ASIC1 activity in bilayers."
same,in vitro phosphorylation of ASIC1,[1],"PKC holoenzyme, PKCβI, PKCβII, PKCδ, PKCε, and PKCζ phosphorylated ASIC1 in vitro."
PKCε (enzyme),reversal of the PKCβI+PKCβII inhibition of ASIC1 activity in bilayers (PKCε and PKCζ in combination),[2],5 fold excess
Syntaxin 1A GST fusion protein,"decrease in channel open probability (Po) in planar lipid bilayers, 25 µM syntaxin 1A in the cis chamber",[3],40%
PKCβII,ASIC1 activity in planar lipid bilayers (PKCβI and PKCβII added in combination),[1],PKC holoenzyme or the combination of PKCβI and PKCβII isoforms inhibited ASIC1.
same,in vitro phosphorylation of ASIC1,[1],"PKC holoenzyme, PKCβI, PKCβII, PKCδ, PKCε, and PKCζ phosphorylated ASIC1 in vitro."
PKCδ,in vitro phosphorylation of ASIC1,[1],"PKC holoenzyme, PKCβI, PKCβII, PKCδ, PKCε, and PKCζ phosphorylated ASIC1 in vitro."
PKCβI,ASIC1 activity in planar lipid bilayers (PKCβI and PKCβII added in combination),[1],PKC holoenzyme or the combination of PKCβI and PKCβII isoforms inhibited ASIC1.
same,in vitro phosphorylation of ASIC1,[1],"PKC holoenzyme, PKCβI, PKCβII, PKCδ, PKCε, and PKCζ phosphorylated ASIC1 in vitro."
scrambled PcTX1 control peptide: 40mer scrambled control peptide having the same amino acid content as PcTX1; SEQ ID NO: 3 (VLEPCKWGFRTCKGEDINCPKVWTRERSKCDCEVKRCHGP; control peptide),diminished ability to migrate through the filter,[4],without effect
same,block of acid-induced inward currents,[5],without effect
same,block of constitutive inward Na^+ current,[6],unaffected
same,block of constitutive inward Na^+ current,[7],unaffected
same,diminished ability to migrate through the filter,[8],without effect
same,diminished ability to migrate through the filter,[9],without effect
B1,ASIC1 activity in planar lipid bilayers,[1],"Neither PKCε, PKCζ, nor their combination had any effect on ASIC1 activity in bilayers."
same,in vitro phosphorylation of ASIC1,[1],"PKC holoenzyme, PKCβI, PKCβII, PKCδ, PKCε, and PKCζ phosphorylated ASIC1 in vitro."
same,reversal of the PKCβI+PKCβII inhibition of ASIC1 activity in bilayers (PKCε and PKCζ in combination),[10],5 fold excess
same,effect on ASIC1 activity in bilayers,[11],"Neither PKCε, PKCζ, nor their combination had any effect"
B2,effect on ASIC1 activity in bilayers,[11],"Neither PKCε, PKCζ, nor their combination had any effect"
